The RNAGym collection of RNA variant scans (doi:10.1093/molbev/msab373)

B1: Azoarcus group I ribozyme (parent)
chain: GUGCCUUGCGCCGGGAAACCACGCAAGGGAUGGUGUCAAAUUCGGCGAAACCUAAGCGCCCGCCCGGGCGUAUGGCAACGCCGAGCCAAGCUUCGGCGCCUGCGCCGAUGAAGGUGUAGAGACUAGACGGCACCCACCUAAGGCAAACGCUAUGGUGAAGGCAUAGUCCAGGGAGUGGCGAAAGUCACACAAACCGG

Variants of: B1
Experiment: reverse-splicing fitness (ratio to wild type); higher = more active; in vitro selection; Mg2+ level not given
Procedure, shortened: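 An in vitro group I ribozyme library with randomized positions was T7-transcribed and gel-purified. In triplicate, 10 pmol RNA in EPPS pH 7.5 was reacted with 50 pmoles of a 30-nt RNA substrate for 1 h at 37 °C across several added MgCl2 levels (1–48 mM), then stopped with EDTA. Products were reverse transcribed from a substrate-complementary primer, PCR-amplified and sequenced (HiSeq 4000). Fitness is a variant's read proportion after selection over that before, normalised to wild type.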

Variant | reverse-splicing fitness
A120U A145G C150G C169U | 0.0537
A120U A145G C150G C169G | 0.0353
A120U A145G C150G C169A | 0.00998
A120U A145U C150A C169G U176A | 0.00797
A120U A145U C150A C169G U176C | 0.0122
A120U A145U C150A C169G U176G | 0.00216
A120U A145G C169U U176A | 0.0927
A120U A145G C169U U176C | 0.126
A120U A145G C169U U176G | 0.0132
A120U C150G C169A U176C | 0.00332
A120U C150G C169A U176G | 0.00242
A120U C150G C169A U176A | 0.00468
A120U A145C C150G U176C | 0.121
A120U A145C C150G U176A | 0.132
A120U A145C C150G U176G | 0.0278
A120U C150U C169A U176G | 0.00183
A120U C150U C169A U176A | 0.0051
A120U C150U C169A U176C | 0.00368
A145G C150A C169A U176G | 0.00608
A145G C150A C169A U176A | 0.0203
A145G C150A C169A U176C | 0.031

Variant | reverse-splicing fitness
A120U A145G C150U C169U U176A | 0.0753
A120U A145G C150U C169U U176G | 0.00649
A120U A145G C150U C169U U176C | 0.108
A145C C150G C169U U176C | 0.0427
A145C C150G C169U U176G | 0.00549
A145C C150G C169U U176A | 0.0183
A120U A145C C169A U176A | 0.00275
A120U A145C C169A U176G | 0.00153
A120U A145C C169A U176C | 0.00401
A120U A145C C150G C169U | 0.0478
A120U A145U C150U C169G | 0.166
A120U A145U C150U C169U | 0.197
A120U A145U C150U C169A | 0.0103
A145C | 0.95
A145G | 0.958
A145C C150A C169A U176C | 0.00805
A145C C150A C169A U176A | 0.0107
A145C C150A C169A U176G | 0.00533
A120U A145U C150G U176A | 0.122
A120U A145U C150G U176C | 0.148
A120U A145U C150G U176G | 0.018

Variant | reverse-splicing fitness
A120U A145U C150U C169A U176C | 0.00496
A120U A145U C150U C169A U176A | 0.00335
A120U A145U C150U C169A U176G | 0.00234
A120U A145C C150U C169U | 0.0928
A120U A145C C150U C169G | 0.0691
A120U A145C C150U C169A | 0.00515
A120U A145G C150G C169U U176C | 0.0205
A120U A145G C150G C169U U176G | 0.0045
A120U A145G C150G C169U U176A | 0.00909
A120U A145U C150G C169G U176A | 0.00507
A120U A145U C150G C169G U176C | 0.00304
A120U A145U C150G C169G U176G | 0.00208
A120U A145G C150G U176C | 0.146
A120U A145G C150G U176A | 0.084
A120U A145G C150G U176G | 0.013
A120U A145G C150U C169A U176G | 0.00258
A120U A145G C150U C169A U176A | 0.00538
A120U A145G C150U C169A U176C | 0.00469
A120U A145U C150U C169U U176C | 0.0952
A120U A145U C150U C169U U176G | 0.00903
A120U A145U C150U C169U U176A | 0.059

Variant | reverse-splicing fitness
A120U A145U C150A U176G | 0.0665
A120U A145U C150A U176C | 0.141
A120U A145U C150A U176A | 0.151
A120U A145U C169G | 0.256
A120U A145U C169A | 0.0173
A120U A145U C169U | 0.261
A145C C169A U176C | 0.05
A145C C169A U176G | 0.00461
A145C C169A U176A | 0.029
A120U C169G U176G | 0.00332
A120U C169G U176A | 0.0354
A120U C169G U176C | 0.0915
A120U A145C C150U C169A U176A | 0.00179
A120U A145C C150U C169A U176G | 0.00156
A120U A145C C150U C169A U176C | 0.00274
A145G C150U C169G U176A | 0.0615
A120U A145G U176A | 0.704
A120U A145G U176G | 0.342
A120U A145G U176C | 0.685
A120U A145C C150G C169G U176G | 0.00252
